Measured values: paper PMC9303947

Target: Myo1^IQ12-FRET protein (CyPet and YPet separated by both Myo1 IQ motifs) (S. pombe)
Experiment: FRET or BRET; Cam1 or ^ACECam1 titrated into 0.5 µM Myo1^IQ12-FRET protein in solution, absence of calcium; % change in donor CyPet fluorescence (excitation 435 nm); 140 mM KCl, 2 mM MgCl2, 20 mM MOPS pH 7.0, 2 mM EGTA; two binding events fitted

| affinity of the first binding event | affinity of the second binding event | Substance |
| --- | --- | --- |
| < 0.1 µM | 1.47 µM | Cam1 (unacetylated Schizosaccharomyces pombe calmodulin) (from UniProt P05933 1-150) (natural protein) |
| < 0.1 µM | 0.68 µM | ^ACECam1 (amino-terminally acetylated Schizosaccharomyces pombe calmodulin) (from UniProt P05933 1-150) (natural protein) |
